Test results: patent publication US8444990

Legend:
[1] = biological target: soluble Her2 (Her2 extracellular ligand binding domain, residues 1-653, fused to the FLAG sequence) (UniProt P04626); test: EIA, plate coated with sHer2, control IgG at 10 ng/ml, absorbance at 405 nm
[2] = biological target: soluble Her3 (Her3 extracellular domain) (UniProt P21860); test: EIA, plate coated with sHer3, control IgG at 100 µg/ml, absorbance at 405 nm
[3] = biological target: soluble Her4 (Her4 receptor extracellular domain, residues 1 to 639) (human) (UniProt Q15303); test: EIA, plate coated with sHer4, control IgG at 100 µg/ml, absorbance at 405 nm
Sequence of UniProt Q15303 (Q15303 other isoform, or with tags, fused parts or gaps limits assumed, form in doubt): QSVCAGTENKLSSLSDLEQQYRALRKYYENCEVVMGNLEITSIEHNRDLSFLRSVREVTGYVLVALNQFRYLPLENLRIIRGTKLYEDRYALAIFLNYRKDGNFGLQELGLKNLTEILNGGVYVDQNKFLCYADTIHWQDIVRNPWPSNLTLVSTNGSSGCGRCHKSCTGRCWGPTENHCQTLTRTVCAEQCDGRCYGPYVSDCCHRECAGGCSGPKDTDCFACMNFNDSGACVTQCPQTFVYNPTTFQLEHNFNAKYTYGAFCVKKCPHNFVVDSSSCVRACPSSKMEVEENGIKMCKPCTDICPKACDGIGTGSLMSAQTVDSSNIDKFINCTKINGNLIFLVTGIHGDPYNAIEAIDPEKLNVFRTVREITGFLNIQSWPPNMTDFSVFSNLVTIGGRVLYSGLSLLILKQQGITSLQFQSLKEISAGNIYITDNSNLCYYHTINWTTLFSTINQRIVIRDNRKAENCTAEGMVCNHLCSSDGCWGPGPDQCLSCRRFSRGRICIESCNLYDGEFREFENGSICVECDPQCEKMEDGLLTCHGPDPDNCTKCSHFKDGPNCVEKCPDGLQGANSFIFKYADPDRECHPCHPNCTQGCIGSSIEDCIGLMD

Sequence of UniProt P21860 (P21860 20-643 limits assumed): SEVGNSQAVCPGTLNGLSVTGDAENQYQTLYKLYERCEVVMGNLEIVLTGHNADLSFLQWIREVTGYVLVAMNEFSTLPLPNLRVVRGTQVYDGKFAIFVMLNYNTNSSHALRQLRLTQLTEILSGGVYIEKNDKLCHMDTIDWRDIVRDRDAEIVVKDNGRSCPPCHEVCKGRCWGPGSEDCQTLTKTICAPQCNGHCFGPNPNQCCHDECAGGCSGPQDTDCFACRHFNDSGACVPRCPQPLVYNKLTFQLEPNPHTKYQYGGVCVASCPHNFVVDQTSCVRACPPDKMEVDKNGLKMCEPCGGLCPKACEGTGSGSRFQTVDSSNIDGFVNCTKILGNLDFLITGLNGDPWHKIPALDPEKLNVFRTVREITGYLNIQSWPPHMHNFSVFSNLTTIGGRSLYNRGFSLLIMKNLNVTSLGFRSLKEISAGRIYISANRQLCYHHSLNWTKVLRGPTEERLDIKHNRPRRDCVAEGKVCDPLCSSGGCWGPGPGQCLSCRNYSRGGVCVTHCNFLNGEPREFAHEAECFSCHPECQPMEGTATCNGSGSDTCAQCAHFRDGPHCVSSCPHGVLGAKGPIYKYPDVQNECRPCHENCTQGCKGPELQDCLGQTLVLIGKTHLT

O.D. of 10 ng/ml [1]: 0.09 O.D.
O.D. of 100 ug/ml [2]: 1.2 O.D.
O.D. of 100 ug/ml [3]: 0.9 O.D.
Substance: Mouse IgG (antibody)
